Laboratory results: PMC5923107 (Antimicrobial Agents and Chemotherapy, 2018)

B1: TRL849 (antibody, V domains shown)
VH: QVQLVESGPGLVKPSQTLSLTCTVSGGSISNGGYHWSWIRQHPGKGLEWIGNIYYRGSTFYDPSLKSRVTISVDTSKSQFSLKLTSVTAADTAVYYCARMPLANYDLLTGLYIGAFDLWGQGTMVTVSS
VL: DIVLTQSPATLSVSPGERATLSCRASQSVNRNLAWFQQIPGQAPRLLIFDASTRAADIPARFSGGGSGAEFTLTVSSLQPEDFAVYYCQQYDKWPPGFGQGTKVEIK
notes: also called MAb TRL849
B2: TRL854 (antibody, V domains shown)
VH: QVQLVESGAEVKKPGASVRVSCKGSGYTFTAYHMHWVRQAPGQGFEWVGWINPNSGATYYTSTFEGRVTMTRDTSITTAYMELSSLRSDDTAVYYCATDIVVERDASLGGFNSYGMDVWGQGTTVTVSS
VL: DIEMTQSPLSLPVTPGEPASISCRSSQSLLHSNGYNHLAWYLQKPGRSPHLLIYLASTRASGVPDRFSGSGSGTDFTLKISRVEAEDVGIYYCMQSLQTSITFGQGTRLEIK
notes: also called MAb TRL854
B3: TRL845 (antibody, V domains shown)
VH: QVQLVQSGGDLVQPGGSLRLSCAASGFTFSRYSMNWVRQAPGMGLEWVAYISDTSRTIYYADSVKGRFTISRDNAKNSLYLQMKSLRDEDTAVYYCARDPDTPFVRAFDSWGQGTLVTVSS
VL: DIVLTQSPSFLSASVGDRVTITCRASQLISSYFAWYQQKPGKPPKLLIYAASTLQSGVPSRFSGSGSGTQFSLTISSLQPEDFATYYCQQLNSYPPITFGQGTRLEIK
notes: also called MAb TRL845
B4: TRL848 (antibody, V domains shown)
VH: QVQLLESGGDVVQPGTSLRLSCAASGFSLWTSGMHWVRQAPGKGLEWVAVMSYDETKKYYADSVRGRFSISRDNSRNTLYLQMNSLRVEDTAVYFCAKPRLDYLDYFHAADSWGQGTLVSVSS
VL: DIVLTQPPSVSVAPGQTATITCGGNYIGSKSVNWYQQRPGHAPVLVVYDDSDRPSGIPDRFSGSNSRSTATTATLTISRVEAGDEADYYCQVWETSEDLWVFGGGTKLTVL
notes: also called MAb TRL848
B5: TRL847 (antibody, V domains shown)
VH: QVQLVESGGGLVQPGGSLRLSCVASGFTFSRFSMNWVRQAPGMGLEWVSYISDTGRTIYYADSVKGRFTISRDNDKNTLYLQMKSLRDEDSAFYYCARDPDTPFVRAFDSWGQGVLVTVSS
VL: DIVMTQSPSFLSASVGDRVTITCRTSQVISSYLAWYQQRPGKAPKLLIYAASTLQSGVPSRFSGSGSGTRFSLTISNLQPEDFATYFCQQLTTYPPITFGQGTRLEIK
notes: also called MAb TRL847

These binders were tested against T1, hemagglutinin (HA) of influenza A virus A/Sydney/05/1997 (H3N2, group 2) (Influenza A virus A/Sydney/5/1997 (H3N2), UniProt C3PR59, strain) (assay: ELISA). Conditions: both partners purified.
T1 construct: also called A/Sydney/05/1997 HA
B1: no binding (tested: 5 μg/ml (30 nM)). B2: no binding (tested: 5 μg/ml (30 nM)). B3: no binding (tested: 5 μg/ml (30 nM)). B4: no binding (tested: 5 μg/ml (30 nM)). B5: no binding (tested: 5 μg/ml (30 nM)).

These binders were tested against T2, hemagglutinin (HA) of influenza A virus A/California/07/2009 (H1N1, group 1) (Influenza A virus A/California/07/2009 …, UniProt C3W5X2, strain) (assay: ELISA). Conditions: both partners purified.
T2 construct: also called A/California/07/2009 HA
B1: no binding (tested: 5 μg/ml (30 nM)). B2: no binding (tested: 5 μg/ml (30 nM)). B3: no binding (tested: 5 μg/ml (30 nM)). B4: no binding (tested: 5 μg/ml (30 nM)). B5: no binding (tested: 5 μg/ml (30 nM)).

Each binder was assayed against T3, biotinylated HA antigen of B/Florida/04/2006 (Influenza B virus B/Florida/4/2006, UniProt E1TVD5, strain) (assay: BLI). Conditions: both partners purified.
T3 construct: also called HA of B/Florida/04/2006
With B1 the Kd was no more than 0.2 nM. B2: binds. Work on B3 yielded a Kd of no more than 0.2 nM. B4: binds. B5: binds.
